Measurements reported in patent publication US11814435B2, “Therapeutic antibodies and their uses” (PFIZER INC., priority 2015, dated 2023).

B1: P5A2: anti-BCMA_H2B4 bispecific, human IgG2dA: anti-BCMA arm P5A2, anti-CD3 arm H2B4 (antibody, V domains shown)
VH: EVQLLESGGGLVQPGGSLRLSCAASGFTFSSYAMNWVRQAPGKGLEWVSAISDSGGSTYYADSVKGRFTISRDNSKNTLYLQMNSLRAEDTAVYYCARYWPMDIWGQGTLVTVSS
VL: EIVLTQSPGTLSLSPGERATLSCRASQSVSSSYLAWYQQKPGQAPRLLMYDASIRATGIPDRFSGSGSGTDFTLTISRLEPEDFAVYYCQQYGSWPLTFGQGTKVEIK
B2: h2B4: anti-CD3 antibody (antibody, V domains shown)
VH: EVQLVESGGGLVQPGGSLRLSCAASGFTFSDYYMTWVRQAPGKGLEWVAFIRNRARGYTSDHNASVKGRFTISRDNAKNSLYLQMNSLRAEDTAVYYCARDRPSYYVLDYWGQGTTVTVSS
VL: DIVMTQSPDSLAVSLGERATINCTSSQSLFNVRSRKNYLAWYQQKPGQPPKLLISWASTRESGVPDRFSGSGSGTDFTLTISSLQAEDVAVYYCKQSYDLFTFGSGTKLEIK

Tests used:
[1] = system: primary myeloma cells from myeloma patients; assay: T cell mediated killing of primary myeloma patient samples by anti-BCMA/CD3 bispecific (flow cytometry live cell count); type: cell-based, human; settings: Patient MM00146; anti-BCMA_h2B4 bispecific; five days after treatment
Description: Human anti-BCMA (P5A2, A02_Rd4_0.6 nM_C01, A02_Rd4_6 nM_C16, Combo_Rd4_0.6 nM_C29, and P6E01 L3PY/H3TAQ) and human anti-CD3 (h2B4) antibodies were expressed as human IgG2dA engineered with EEEE or RRRR for bispecific exchange as describe in Example 8.
Cells were treated with 10-fold serially diluted bispecific antibody. […] EC50 was calculated by Prism software.

cyCD3ed = cyCD3ed (Macaca fascicularis, UniProt Q95LI5); assay: Kinetics and affinity of cyCD3ed/human IgG interactions by SPR (Bio-Rad Proteon XPR36); type: binding, cynomolgus
Chain of cyCD3ed (Q95LI5 22-117 limits assumed): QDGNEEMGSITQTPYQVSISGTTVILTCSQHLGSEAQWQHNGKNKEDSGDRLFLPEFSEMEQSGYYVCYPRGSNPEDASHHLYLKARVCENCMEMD
Chain of cyCD3ed (Q95LI8 22-105 partner limits assumed): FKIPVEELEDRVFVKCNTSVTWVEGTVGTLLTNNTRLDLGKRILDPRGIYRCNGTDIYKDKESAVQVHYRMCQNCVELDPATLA

hCD3 (human CD3) = hCD3 (human CD3) (Homo sapiens, UniProt P07766); assay: Kinetics and affinity of hCD3/human IgG interactions by SPR (Bio-Rad Proteon XPR36); type: binding
Chain of hCD3 (human CD3) (P07766 23-126 limits assumed): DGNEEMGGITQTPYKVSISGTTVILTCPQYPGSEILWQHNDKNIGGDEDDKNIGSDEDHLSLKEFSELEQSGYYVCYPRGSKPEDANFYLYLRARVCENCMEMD
Chain of hCD3 (human CD3) (P04234 22-105 partner limits assumed): as the sequence (Q95LI8 22-105 partner limits assumed) above, with V5I, K15N, V20I, T32S, N33D, N34I, A64T, N74S, L83V counted along it
Description: All experiments were performed on a Bio-Rad Proteon XPR36 surface Plasmon resonance biosensor (Bio-Rad, Hercules, Calif.). An array of anti-CD3 antibodies was prepared using an amine-coupling method on a Bio-Rad GLC Sensor Chip similar to that described in Abdiche, et al., Anal. Biochem. 411, 139-151 (2011). The analysis temperature for the immobilization was 25° C. and the running buffer was HBS-T+(10 mM HEPES, 150 mM NaCl, 0.05% Tween-20, pH 7.4). Channels were activated in the analyte (horizontal) direction by injecting a mixture of 1 mM ECD and 0.25 mM NHS for 3 minutes at a flow rate of 30 μL/min. IgGs were immobilized on the activated spots by injecting them in the ligand (vertical) direction at 20 μg/mL in 10 mM Acetate pH 4.5 buffer for 1.5 minutes at […]. The activated surfaces were blocked by injecting 1M ethanolamine, pH 8.5 in the analyte direction for 3 minutes at 30 μL/min.
The analysis temperature for the hCD3 binding analysis was 37° C. or 25° C. in a running buffer of HBS-T+, supplemented with 1 mg/mL BSA. A kinetic titration method was employed for the interaction analysis as described in Abdiche, et al. The hCD3 (human CD3) analyte was injected in the analyte direction using a series of injections from low to high concentration. The concentrations used were 0.08 nM, 0.4 nM, 2 nM, 10 nM and 50 nM (a 5-membered series, with a 5-fold dilution factor and top concentration of 50 nM). The association time for a given analyte dilution was two minutes. Immediately after the 50 nM hCD3 injection, dissociation was monitored for 2 hours. Prior to the hCD3 analyte injections, buffer was injected 5 times using the same association and dissociation times at the hCD3 analyte cycles to prepare a buffer blank sensorgram for double-referencing purposes (double referencing as described in Myszka, J. Mol. Recognit. 12, 279-284 (1999).
The sensorgrams were double-referenced and fit to a 1:1 Langmuir with mass transport kinetic titration model in BIAevaluation Software version 4.1.1 (GE Lifesciences, Piscataway, N.J.).

Row | Molecule | EC50 [1] [nM] | ka cyCD3ed @25° C. (cyCD3ed) [M⁻¹ s⁻¹] | kd cyCD3ed @25° C. (cyCD3ed) [s⁻¹] | ka huCD3ed @25° C. (hCD3 (human CD3); 25° C.) [M⁻¹ s⁻¹] | kd huCD3ed @25° C. (hCD3 (human CD3); 25° C.) [s⁻¹] | ka huCD3ed @37° C. (hCD3 (human CD3); 37° C.) [M⁻¹ s⁻¹] | kd huCD3ed @37° C. (hCD3 (human CD3); 37° C.) [s⁻¹]
1 | B1 | 0.946 |  |  |  |  |  | 
2 | B2 |  | 390000 | 0.0015 | 370000 | 0.002 | 437000 | 0.01369
